Experimental data reported in patent US20150203577A1 (Chugai, published 2015).
Substitutions are numbered along the chain they refer to.

T1: mouse FcγRIII extracellular domain, C-terminal His tag (mouse, UniProt P08508 31-215)
T1 construct: Whole entry named; also called mFcγRIII; mFcgRIII
T1 chain: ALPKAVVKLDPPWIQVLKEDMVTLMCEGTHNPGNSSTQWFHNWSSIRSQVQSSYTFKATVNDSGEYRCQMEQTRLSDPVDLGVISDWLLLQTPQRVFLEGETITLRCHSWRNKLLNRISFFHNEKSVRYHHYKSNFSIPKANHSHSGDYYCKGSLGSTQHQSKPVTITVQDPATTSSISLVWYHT

T2: mouse FcγRII extracellular domain, C-terminal His tag (mouse, UniProt P08101 30-210)
T2 construct: Whole entry named; also called mFcγRII; mFcgRII
T2 sequence: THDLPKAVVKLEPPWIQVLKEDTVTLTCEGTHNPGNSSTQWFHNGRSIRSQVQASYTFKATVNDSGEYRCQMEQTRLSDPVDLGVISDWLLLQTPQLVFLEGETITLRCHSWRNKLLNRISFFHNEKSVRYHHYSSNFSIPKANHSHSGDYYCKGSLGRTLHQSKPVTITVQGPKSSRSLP

B1: H237-MB572/MRAL-k0 (antibody, mouse IgG1, kappa)
heavy: QVQLQESGPGLVKPSETLSLTCAVSGHSISHDHAWSWVRQPPGEGLEWIGFISYSGITNYNPSLQGRVTISRDNSKNTLYLQMNSLRAEDTAVYYCARSLARTTAMDYWGEGTLVTVSSAKTTPPSVYPLAPGSAAQTNSMVTLGCLVKGYFPEPVTVTWNSGSLSSGVHTFPAVLQSDLYTLSSSVTVPSSTWPSETVTCNVAHPASSTKVDKKIVPRDCGCKPCICTVPEESWVFIFPPKPKDVLTITLTPKVTCVVVDISKDDPEVQFSWFVDDVEVHTAQTQPREEQFNSTFRSVSELPIMHQDWLNGKEFKCRVNSAAFPAPIEKTISKTKGRPKAPQVYTIPPPKEQMAKDKVSLTCMITDFFPEDITVEWQWNGQPAENYKNTQPIMDTDGSYFVYSKLNVQKSNWEAGNTFTCSVLHEGLHNHHTEKSLSHSPGK
light: not shown
notes: copies: 2 + 2
B2: H237-MB585/MRAL-k0 (antibody, mouse IgG1, kappa)
heavy: B1 heavy with E233V, S234D, W235F
light: not shown
notes: copies: 2 + 2
B3: H237-MB577/MRAL-k0 (antibody, mouse IgG1, kappa)
heavy: B1 heavy with E233V, W235F, F237E
light: not shown
notes: copies: 2 + 2
B4: H237-MB584/MRAL-k0 (antibody, mouse IgG1, kappa)
heavy: B1 heavy with S234D, W235S
light: not shown
notes: copies: 2 + 2
B5: H237-MB602/MRAL-k0 (antibody, mouse IgG1, kappa)
heavy: B1 heavy with T229E, S234D, W235S
light: not shown
notes: copies: 2 + 2
B6: H237-MB591/MRAL-k0 (antibody, mouse IgG1, kappa)
heavy: B1 heavy with E233V, S234D, W235S, S294H
light: not shown
notes: copies: 2 + 2
B7: H237-MB579/MRAL-k0 (antibody, mouse IgG1, kappa)
heavy: B1 heavy with E233V, F237D
light: not shown
notes: copies: 2 + 2
B8: H237-MB608/MRAL-k0 (antibody, mouse IgG1, kappa)
heavy: B1 heavy with E233V, S234E, W235E, F237D
light: not shown
notes: copies: 2 + 2
B9: H237-MB603/MRAL-k0 (antibody, mouse IgG1, kappa)
heavy: B1 heavy with T229E, E233V, S234D, W235F
light: not shown
notes: copies: 2 + 2
B10: H237-MB589/MRAL-k0 (antibody, mouse IgG1, kappa)
heavy: B1 heavy with E233V, S234D, W235S, F237T
light: not shown
notes: copies: 2 + 2
B11: H237-MB607/MRAL-k0 (antibody, mouse IgG1, kappa)
heavy: B1 heavy with S234E, W235E
light: not shown
notes: copies: 2 + 2
B12: H237-MB575/MRAL-k0 (antibody, mouse IgG1, kappa)
heavy: B1 heavy with W235S, F237T
light: not shown
notes: copies: 2 + 2
B13: H237-MB599/MRAL-k0 (antibody, mouse IgG1, kappa)
heavy: B1 heavy with T229E, W235F
light: not shown
notes: copies: 2 + 2
B14: H237-MB597/MRAL-k0 (antibody, mouse IgG1, kappa)
heavy: B1 heavy with T229E, E233V, S234E, W235S, F237D
light: not shown
notes: copies: 2 + 2
B15: H237-MB580/MRAL-k0 (antibody, mouse IgG1, kappa)
heavy: B1 heavy with E233V, F237E
light: not shown
notes: copies: 2 + 2
B16: H237-MB598/MRAL-k0 (antibody, mouse IgG1, kappa)
heavy: B1 heavy with T229E, E233V, S234E, W235S, S263M
light: not shown
notes: copies: 2 + 2
B17: H237-MB588/MRAL-k0 (antibody, mouse IgG1, kappa)
heavy: B1 heavy with E233V, S234D, W235S, F237E
light: not shown
notes: copies: 2 + 2
B18: H237-MB574/MRAL-k0 (antibody, mouse IgG1, kappa)
heavy: B1 heavy with W235S, F237E
light: not shown
notes: copies: 2 + 2
B19: H237-MB573/MRAL-k0 (antibody, mouse IgG1, kappa)
heavy: B1 heavy with W235S, F237D
light: not shown
notes: copies: 2 + 2
B20: H237-MB595/MRAL-k0 (antibody, mouse IgG1, kappa)
heavy: B1 heavy with T229E, E233V, S234E, W235F
light: not shown
notes: copies: 2 + 2
B21: H237-MB576/MRAL-k0 (antibody, mouse IgG1, kappa)
heavy: B1 heavy with E233V, W235F, F237D
light: not shown
notes: copies: 2 + 2
B22: H237-MB605/MRAL-k0 (antibody, mouse IgG1, kappa)
heavy: B1 heavy with T229E, E233V, S234D, W235S, F237D
light: not shown
notes: copies: 2 + 2
B23: H237-MB586/MRAL-k0 (antibody, mouse IgG1, kappa)
heavy: B1 heavy with E233V, S234D
light: not shown
notes: copies: 2 + 2
B24: H237-MB587/MRAL-k0 (antibody, mouse IgG1, kappa)
heavy: B1 heavy with E233V, S234D, W235S, F237D
light: not shown
notes: copies: 2 + 2
B25: H237-MB581/MRAL-k0 (antibody, mouse IgG1, kappa)
heavy: B1 heavy with E233V, F237T
light: not shown
notes: copies: 2 + 2
B26: H237-MB596/MRAL-k0 (antibody, mouse IgG1, kappa)
heavy: B1 heavy with T229E, E233V, S234E
light: not shown
notes: copies: 2 + 2
B27: H237-MB601/MRAL-k0 (antibody, mouse IgG1, kappa)
heavy: B1 heavy with T229E, W235S, F237D
light: not shown
notes: copies: 2 + 2
B28: H237-MB609/MRAL-k0 (antibody, mouse IgG1, kappa)
heavy: B1 heavy with E233V, S234E, W235E, S263M
light: not shown
notes: copies: 2 + 2
B29: H237-MB578/MRAL-k0 (antibody, mouse IgG1, kappa)
heavy: B1 heavy with E233V, W235F, F237T
light: not shown
notes: copies: 2 + 2
B30: H237-MB600/MRAL-k0 (antibody, mouse IgG1, kappa)
heavy: B1 heavy with T229E
light: not shown
notes: copies: 2 + 2
B31: H237-MB604/MRAL-k0 (antibody, mouse IgG1, kappa)
heavy: B1 heavy with T229E, E233V, S234D
light: not shown
notes: copies: 2 + 2

Molecular target: T1, mouse FcγRIII extracellular domain, …
Test: SPR (Biacore T200); KD of H237-mIgG1/MRAL-k0 / KD of variant

relative mFcγRIII-binding activity (mIgG1 = 1) [fold]	Binder
0.07	B1
0.03	B2
1.19	B3
0.02	B4
0.05	B5
0.02	B6
0.34	B7
0.13	B8
0.06	B9
0.19	B10
0.18	B11
0.05	B12
0.11	B13
0.54	B14
0.61	B15
0.08	B16

relative mFcγRIII-binding activity (mIgG1 = 1) [fold]	Binder
1.01	B17
0.1	B18
0.06	B19
0.05	B20
0.6	B21
4.4	B22
0.08	B23
0.6	B24
0.42	B25
0.17	B26
0.1	B27
0.32	B28
0.25	B29
0.25	B30
0.16	B31

molecular target: T2, mouse FcγRII extracellular domain, …; test: as above

relative mFcγRII-binding activity (mIgG1 = 1) [fold]	Binder
0.26	B1
0.06	B2
2.51	B3
0.08	B4
0.26	B5
0.08	B6
0.89	B7
0.42	B8
0.12	B9
0.23	B10
3.14	B11
0.08	B12
0.7	B13
1.28	B14
1.38	B15
0.41	B16

relative mFcγRII-binding activity (mIgG1 = 1) [fold]	Binder
2.01	B17
0.27	B18
0.43	B19
0.09	B20
1.54	B21
9.85	B22
0.13	B23
1.33	B24
0.69	B25
0.55	B26
0.55	B27
2.66	B28
0.39	B29
1.24	B30
0.34	B31
